# According to IntAct's records for PubMed 20668449:
# B1: N-terminal Xaa-Pro-Lys N-methyltransferase 1 (Homo sapiens), Q9BV86 (parent)
# chain: MTSEVIEDEKQFYSKAKTYWKQIPPTVDGMLGGYGHISSIDINSSRKFLQRFLREGPNKTGTSCALDCGAGIGRITKRLLLPLFREVDMVDITEDFLVQAKTYLGEEGKRVRNYFCCGLQDFTPEPDSYDVIWIQWVIGHLTDQHLAEFLRRCKGSLRPNGIIVIKDNMAQEGVILDDVDSSVCRDLDVVRRIICSAGLSLLAEERQENLPDEIYHVYSFALR
# B2: Regulator of chromosome condensation (Homo sapiens), P18754 (parent)
# chain: MSPKRIAKRRSPPADAIPKSKKVKVSHRSHSTEPGLVLTLGQGDVGQLGLGENVMERKKPALVSIPEDVVQAEAGGMHTVCLSKSGQVYSFGCNDEGALGRDTSVEGSEMVPGKVELQEKVVQVSAGDSHTAALTDDGRVFLWGSFRDNNGVIGLLEPMKKSMVPVQVQLDVPVVKVASGNDHLVMLTADGDLYTLGCGEQGQLGRVPELFANRGGRQGLERLLVPKCVMLKSRGSRGHVRFQDAFCGAYFTFAISHEGHVYGFGLSNYHQLGTPGTESCFIPQNLTSFKNSTKSWVGFSGGQHHTVCMDSEGKAYSLGRAEYGRLGLGEGAEEKSIPTLISRLPAVSSVACGASVGYAVTKDGRVFAWGMGTNYQLGTGQDEDAWSPVEMMGKQLENRVVLSVSSGGQHTVLLVKDKEQS
# Variants of: B1
# Conditions: with rcc1_human RCC1, P18754
row,Variant,effect of a mutation on the interaction
1,MTSEVIEDEKQFYSKAKTYWKQIPPTVDGMLGGYGHISSIDINSSRKFLQRFLREGPNKTGTSCALDCGAGIGRITKRLLLPLFREVDMVDITEDFLVQAKTYLGEEGKRVRNYFCCGLQDFTPEPDSYDVIWIQWVIGHLTDQHLAEFLRRCKGSLRPNGIIVIKDNMAQEGVILDDVKSSVCRDLDVVRRIICSAGLSLLAEERQENLPDEIYHVYSFALR [D180K],disrupting interaction
2,MTSEVIEDEKQFYSKAKTYWKQIPPTVDGMLGGYGHISSIDINSSRKFLQRFLREGPNKTGTSCALDCGAGIGRITKRLLLPLFREVDMVDITEDFLVQAKTYLGEEGKRVRNYFCCGLQDFTPEPDSYDVIWIQWVIGHLTDQHLAEFLRRCKGSLRPNGIIVIKDKMAQEGVILDDVDSSVCRDLDVVRRIICSAGLSLLAEERQENLPDEIYHVYSFALR [N168K],disrupting interaction

# Variants of: B2
# Conditions: with ntm1a_human NTMT1, Q9BV86
row,Variant,effect of a mutation on the interaction
1,MDPKRIAKRRSPPADAIPKSKKVKVSHRSHSTEPGLVLTLGQGDVGQLGLGENVMERKKPALVSIPEDVVQAEAGGMHTVCLSKSGQVYSFGCNDEGALGRDTSVEGSEMVPGKVELQEKVVQVSAGDSHTAALTDDGRVFLWGSFRDNNGVIGLLEPMKKSMVPVQVQLDVPVVKVASGNDHLVMLTADGDLYTLGCGEQGQLGRVPELFANRGGRQGLERLLVPKCVMLKSRGSRGHVRFQDAFCGAYFTFAISHEGHVYGFGLSNYHQLGTPGTESCFIPQNLTSFKNSTKSWVGFSGGQHHTVCMDSEGKAYSLGRAEYGRLGLGEGAEEKSIPTLISRLPAVSSVACGASVGYAVTKDGRVFAWGMGTNYQLGTGQDEDAWSPVEMMGKQLENRVVLSVSSGGQHTVLLVKDKEQS [S2D],disrupting interaction strength
2,MVPKRIAKRRSPPADAIPKSKKVKVSHRSHSTEPGLVLTLGQGDVGQLGLGENVMERKKPALVSIPEDVVQAEAGGMHTVCLSKSGQVYSFGCNDEGALGRDTSVEGSEMVPGKVELQEKVVQVSAGDSHTAALTDDGRVFLWGSFRDNNGVIGLLEPMKKSMVPVQVQLDVPVVKVASGNDHLVMLTADGDLYTLGCGEQGQLGRVPELFANRGGRQGLERLLVPKCVMLKSRGSRGHVRFQDAFCGAYFTFAISHEGHVYGFGLSNYHQLGTPGTESCFIPQNLTSFKNSTKSWVGFSGGQHHTVCMDSEGKAYSLGRAEYGRLGLGEGAEEKSIPTLISRLPAVSSVACGASVGYAVTKDGRVFAWGMGTNYQLGTGQDEDAWSPVEMMGKQLENRVVLSVSSGGQHTVLLVKDKEQS [S2V],decreasing interaction

# Variants of: B2
# Conditions: with ntm1a_human NTMT1, Q9BV86
# Remark: another data set of the same source
row,Variant,effect of a mutation on the interaction
1,MSPQRIAKRRSPPADAIPKSKKVKVSHRSHSTEPGLVLTLGQGDVGQLGLGENVMERKKPALVSIPEDVVQAEAGGMHTVCLSKSGQVYSFGCNDEGALGRDTSVEGSEMVPGKVELQEKVVQVSAGDSHTAALTDDGRVFLWGSFRDNNGVIGLLEPMKKSMVPVQVQLDVPVVKVASGNDHLVMLTADGDLYTLGCGEQGQLGRVPELFANRGGRQGLERLLVPKCVMLKSRGSRGHVRFQDAFCGAYFTFAISHEGHVYGFGLSNYHQLGTPGTESCFIPQNLTSFKNSTKSWVGFSGGQHHTVCMDSEGKAYSLGRAEYGRLGLGEGAEEKSIPTLISRLPAVSSVACGASVGYAVTKDGRVFAWGMGTNYQLGTGQDEDAWSPVEMMGKQLENRVVLSVSSGGQHTVLLVKDKEQS [K4Q],disrupting interaction
